Data as given in US20060172360.

How the values were obtained:
[1] = biological target: GST-MKK7 (unactive/inactive, Upstate) [GST: P08515]
[2] = biological target: GST (glutathione S-transferase, negative control substrate) [GST: P08515]

| Protein | in-vitro phosphorylation of the substrate (immune complex phosphorylation method, [γ-32P]ATP, SDS-PAGE, autoradiography) [1] | in-vitro phosphorylation of the substrate (immune complex phosphorylation method, [γ-32P]ATP, SDS-PAGE, autoradiography) [2] |
| --- | --- | --- |
| HA-JIK (human JNK/SAPK-inhibitory kinase ligated with HA-tag at its N-terminus) (protein) MRKGVLKDPEIADLFYKDDPEELFIGLHEIGHGSFGAVYFATNAHTSEVVAIKKMSYSGKQTHEKWQDILKEVKFLRQLKHPNTIEYKGCYLKEHTAWLVMEYCLGSASDLLEVHKKPLQEVEIAAITHGALHGLAYLHSHALIHRDIKAGNILLTEPGQVKLADFGSASMASPANSFVGTPYWMAPEVILAMDEGQYDGKVDIWSLGITCIELAERKPPLFNMNAMSALYHIAQNDSPTLQSNEWTDSFRRFVDYCLQKIPQERPTSAELLRHDFVRRDRPLRVLIDLIQRTKDAVRELDNLQYRKMKKILFQETRNGPLNESQEDEEDSEHGTSLNREMDSLGSNHSIPSMSVSTGSQSSSVNSMQEVMDESSSELVMMHDDESTINSSSSVVHKKDHVFIRDEAGHGDPRPEPRPTQSVQSQALHYRNRERFATIKSASLVTRQIHEHEQENELREQMSGYKRMRRQHQKQLIALENKLKAEMDEHRLKLQKEVETHANNSSIELEKLAKKQVAIIEKEAKVAAADEKKFQQQILAQQKKDLTTFLESQKKQYKICKEKIKEEMNEDHSTPKKEKQERISKHKENLQHTQAEEEAHLLTQQRLYYDKNCRFFKRKIMIKRHEVEQQNIREELNKKRTQKEMEHAMLIRHDESTRELEYRQLHTLQKLRMDLIRLQHQTELENQLEYNKRRERELHRKHVMELRQQPKNLKAMEMQIKKQFQDTCKVQTKQYKALKNHQLEVTPKNEHKTILKTLKDEQTRKLAILAEQYEQSINEMMASQALRLDEAQEAECQALRLQLQQEMELLNAYQSKIKMQTEAQHERELQKLEQRVSLRRAHLEQKIEEELAALQKERSERIKNLLERQEREIETFDMESLRMGFGNLVTLDFPKEDYR | The phosphorylation of GST-MKK7 by JIK was observed | The phosphorylation was not observed when GST was used as a substrate for a negative control |
| FLAG-PAK4 (human p21-activated kinase 4 ligated with FLAG-tag at its N-terminus) (protein) MFGKRKKRVEISAPSNFEHRVHTGFDQHEQKFTGLPRQWQSLIEESARRPKPLVDPACITSIQPGAPKTIVRGSKGAKDGALTLLLDEFENMSVTRSNSLRRDSPPPPARARQENGMPEEPATTARGGPGKAGSRGRFAGHSEAGGGSGDRRRAGPEKRPKSSREGSGGPQESSRDKRPLSGPDVGTPQPAGLASGAKLAAGRPFNTYPRADTDHPSRGAQGEPHDVAPNGPSAGGLAIPQSSSSSSRPPTRARGAPSPGVLGPHASEPQLAPPACTPAAPAVPGPPGPRSPQREPQRVSHEQFRAALQLVVDPGDPRSYLDNFIKIGEGSTGIVCIATVRSSGKLVAVKKMDLRKQQRRELLFNEVVIMRDYQHENVVEMYNSYLVGDELWVVMEFLEGGALTDIVTHTRMNEEQIAAVCLAVLQALSVLHAQGVIHRDIKSDSILLTHDGRVKLSDFGFCAQVSKEVPRRKSLVGTPYWMAPELISRLPYGPEVDIWSLGIMVIEMVDGEPPYFNEPPLKAMKMIRDNLPPRLKNLHKVSPSLKGFLDRLLVRDPAQRATAAELLKHPFLAKAGPPASIVPLMRQNRTR | The phosphorylation of GST-MKK7 by PAK4 was observed | The phosphorylation was not observed when GST was used as a substrate for a negative control |
